The text below walks through data of patent US20250179173A1 (IMMUNE ONC THERAPEUTICS, published 2025).

In assay [1] the target is T1, human LILRB4 (human, UniProt Q8NHJ6 22-259, limits assumed).
T1 construct: also called ILT3; LIR5
As to the kind of experiment: blocking of Fibronectin binding to LILRB4; method not stated in the example.

For assay [2], the target named is T1, human LILRB4. Description: blocking of APOE binding to LILRB4; method not stated in the example.
Assay [3] deals with T1, human LILRB4. Description: 'Affinity to human LILRB4'; method not stated in the example.

B1: anti-LILRB4 antibody H7K3m5 (antibody, IgG1, V domains shown)
VH: EVQLVESGGGLVQPGGSLRLSCAASGFSLSSSYWISWVRQAPGKGLEWIGSIDSGSVGITYYATWVKGRFTISRDNSKNTLYLQMNSLRAEDTAVYYCARHGDNWALDLWGQGTLVTVSS
VL: DIQMTQSPSTLSASVGDRVTITCRASQSISSWLAWYQQKPGKAPKLLIYKASTLASGVPSRFSGSGSGTEFTLTISSLQPDDFATYYCQHGYIRGDLDNVFGGGTKVEIK
By IC50 is commonly meant the concentration at which inhibition is half-maximal. One may read the Kd as the equilibrium constant for the complex coming apart. As to B1, the IC50 was determined as 0.78 nM in the assay with human LILRB4 [1] and 0.18 nM in the assay with human LILRB4 [2]. The same molecule registered an equilibrium dissociation constant (Kd) in the assay with human LILRB4 [3] of 0.5 nM.
